According to US20230087378A1 (UCB, published 2023):
Numbering of substitutions follows the chain as printed. Values joined by “and” are separate entries in the source; they are usually repeats but may differ in a detail not shown here. Identical values can stand only once.

Key:
Human IL-17A [1] = biological target: T1, Human IL-17A (human, UniProt Q16552 24-155); test: cell-based or functional assay
Human IL-17F [2] = biological target: T2, Human IL-17F (human, UniProt Q96PD4 31-163); test: cell-based or functional assay
T2 sequence (looked up): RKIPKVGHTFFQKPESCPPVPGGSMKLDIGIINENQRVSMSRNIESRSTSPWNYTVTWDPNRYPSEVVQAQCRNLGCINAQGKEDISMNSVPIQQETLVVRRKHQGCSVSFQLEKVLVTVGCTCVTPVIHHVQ

Cyno IL-17A [3] = biological target: T3, Cyno IL-17A (cynomolgus, UniProt A0A2K5TTB0 24-155); test: cell-based or functional assay
Cyno IL-17F [4] = biological target: T4, Cyno IL-17F (cynomolgus, UniProt G7P4V0 31-163); test: cell-based or functional assay
T4 sequence: T2 sequence (looked up) with G22E, I29T, R73K, N74H, V100L, I129V

Human IL-17A [5] = biological target: T1, Human IL-17A; test: cell-based or functional assay; remark: listed apart in the source
Human IL-13 [6] = biological target: T5, Human IL-13 (human, UniProt P35225 35-146); test: cell-based or functional assay
Human IL-17F [7] = biological target: T2, Human IL-17F; test: cell-based or functional assay; remark: listed apart in the source
Human IL-13 [8] = biological target: T5, Human IL-13; test: cell-based or functional assay; remark: listed apart in the source
[9] = biological target: mixture of human IL-17A, IL-13 and albumin (human); test: SPR, mixture of human IL-13, IL-17A and albumin injected together over captured antibody
[10] = biological target: mixture of human IL-17A, IL-13 and albumin (human); test: SPR, response of the human mixture against the sum of the single-analyte responses, mean of n = 3
[11] = biological target: mixture of cynomolgus IL-17A, IL-13 and albumin (cynomolgus); test: SPR, response of the cynomolgus mixture against the sum of the single-analyte responses
Human IL-17F [12] = biological target: T2, Human IL-17F; test: SPR (Biacore T200), antibody captured on anti-human F(ab')2, human IL-17F as analyte, 25 C, 1:1 model
Experimental: (§1) A goat anti-human IgG, F(ab′)₂ fragment specific antibody (Jackson ImmunoResearch) was immobilised on a CM5 Sensor Chip via amine coupling chemistry to a level of approximately 5000 RU. […] At the end of each cycle the surface was regenerated at a flowrate of 10 μl/min using a 60 s injection of 50 mM HCl followed by a 30 s injection of 5 mM NaOH and a final 60 s injection of 50 mM HCl. […] Buffer blank injections were included to subtract instrument noise and drift.
(§2) Kinetic parameters were determined using a 1:1 binding model using Biacore T200 Evaluation software (version 3.0).

[13] = biological target: mixture of cynomolgus IL-17A, IL-13 and albumin (cynomolgus); test: SPR, mixture of cynomolgus IL-13, IL-17A and albumin injected together over captured antibody
[14] = biological target: mixture of cynomolgus IL-17A, IL-13 and albumin (cynomolgus); test: SPR, response of the cynomolgus mixture against the sum of the single-analyte responses, mean of n = 3
Human IL-13 [15] = biological target: T5, Human IL-13; test: SPR (Biacore T200), antibody captured on anti-human F(ab')2, human IL-13 as analyte, 25 C, 1:1 model
Experimental: as §1, §2

[16] = biological target: mixture of human IL-17A, IL-13 and albumin (human); test: SPR, response of the human mixture against the sum of the single-analyte responses
Human IL-17A [17] = biological target: T1, Human IL-17A; test: SPR (Biacore T200), antibody captured on anti-human F(ab')2, human IL-17A as analyte, 25 C, 1:1 model
Experimental: as §1, §2

Human IL-17AF = biological target: T6, Human IL-17AF (human, UniProt Q16552 24-155; Q96PD4 31-163); test: SPR (Biacore T200), antibody captured on anti-human F(ab')2, analyte in solution, 25 C, 1:1 model
T6 construct: also called IL-17A/F heterodimer
Description: (§3) A goat anti-human IgG, F(ab′)₂ fragment specific antibody (Jackson ImmunoResearch) was immobilised on a CM5 Sensor Chip via amine coupling chemistry to a level of approximately 5000 RU. […] Buffer blank injections were included to subtract instrument noise and drift.

Human IL-17A [18] = biological target: T1, Human IL-17A; test: as above
Description: as §3

Human IL-13 [19] = biological target: T5, Human IL-13; test: as above
Description: as §3

Human IL-17F [20] = biological target: T2, Human IL-17F; test: as above
Description: as §3

Cyno IL-17A [21] = biological target: T3, Cyno IL-17A; test: as above
Description: as §3

Human albumin = biological target: T7, Human albumin (human, UniProt P02768 25-609); test: as above
T7 construct: also called human serum albumin
Description: as §3

Cyno IL-13 = biological target: T8, Cyno IL-13 (cynomolgus, UniProt Q0PW92 21-132); test: as above
T8 construct: also called Cynomolgus IL-13
Description: as §3

Cyno IL-17AF = biological target: T9, Cyno IL-17AF (cynomolgus, UniProt A0A2K5TTB0 24-155; G7P4V0 31-163); test: as above
T9 construct: also called Cynomolgus IL-17AF
Description: as §3

Cyno IL-17F [22] = biological target: T4, Cyno IL-17F; test: as above
Description: as §3

Cyno albumin = biological target: T10, Cyno albumin (cynomolgus, UniProt A2V9Z4 25-608); test: as above
T10 construct: also called Cynomolgus albumin
Description: as §3

- IC50, inhibition of IL-6 release from nHDF stimulated with IL-17A and TNF-α (Human IL-17A [1]): 0.042 nM
- IC50, inhibition of IL-6 release from nHDF stimulated with IL-17F and TNF-α (Human IL-17F [2]): 28 nM
- IC50, inhibition of IL-6 release from nHDF stimulated with IL-17A and TNF-α (Cyno IL-17A [3]): 0.049 nM
- IC50, inhibition of IL-6 release from nHDF stimulated with IL-17F and TNF-α (Cyno IL-17F [4]): 34.3 nM
- inhibition of CXCL1 release from NHEK treated with a mixture of IL-13, IL-17A and IL-17F (Human IL-17A [5]): 81.3%
- inhibition of CXCL1 release from NHEK treated with a mixture of IL-13, IL-17A and IL-17F (Human IL-13 [6]): 81.3%
- inhibition of CXCL1 release from NHEK treated with a mixture of IL-13, IL-17A and IL-17F (Human IL-17F [7]): 81.3%
- IC50 for inhibition of STAT6 signalling (HEK 293 Human IL4/IL-13 SEAP reporter cells) (Human IL-13 [8]): 4.12 pM and 0.412 ng/ml
- Binding, n = 1 (RU) [9]: 81 RU
- Binding, n = 2 (RU) [9]: 131 RU
- Binding, n = 3 (RU) [9]: 129 RU
- Binding of Mixture as a Percentage of Individual Binding Responses (%), Mean [10]: 100%
- Binding of Mixture as a Percentage of Individual Binding Responses (%), n = 1 [11]: 97%
- Binding of Mixture as a Percentage of Individual Binding Responses (%), n = 2 [11]: 96%
- Binding of Mixture as a Percentage of Individual Binding Responses (%), n = 3 [11]: 97%
- Kd (Human IL-17F [12]): 0.0821 nM
- koff (Human IL-17F [12]): 0.000219 s⁻¹
- kon (Human IL-17F [12]): 2.66e+06 M⁻¹ s⁻¹
- Binding, n = 1 (RU) [13]: 146 RU
- Binding, n = 2 (RU) [13]: 141 RU
- Binding, n = 3 (RU) [13]: 145 RU
- Binding of Mixture as a Percentage of Individual Binding Responses (%), Mean [14]: 97%
- Kd (Human IL-13 [15]): 0.0258 nM
- koff (Human IL-13 [15]): 0.000111 s⁻¹
- kon (Human IL-13 [15]): 3.61e+06 M⁻¹ s⁻¹
- Binding of Mixture as a Percentage of Individual Binding Responses (%), n = 1 [16]: 100%
- Binding of Mixture as a Percentage of Individual Binding Responses (%), n = 2 [16]: 100%
- Binding of Mixture as a Percentage of Individual Binding Responses (%), n = 3 [16]: 100%
- Kd (Human IL-17A [17]): 0.0082 nM
- koff (Human IL-17A [17]): 3.45e-05 s⁻¹
- kon (Human IL-17A [17]): 3.2e+06 M⁻¹ s⁻¹
- Kd (Human IL-17AF): 0.015 nM
- koff (Human IL-17AF): 4.54e-05 s⁻¹
- kon (Human IL-17AF): 3.7e+06 M⁻¹ s⁻¹
- Kd (Human IL-17A [18]): 0.009 nM
- koff (Human IL-17A [18]): 1.57e-05 s⁻¹
- kon (Human IL-17A [18]): 2.26e+06 M⁻¹ s⁻¹
- Kd (Human IL-13 [19]): 0.026 nM
- koff (Human IL-13 [19]): 3.84e-05 s⁻¹
- kon (Human IL-13 [19]): 1.46e+06 M⁻¹ s⁻¹
- Kd (Human IL-17F [20]): 0.128 nM
- koff (Human IL-17F [20]): 0.000198 s⁻¹
- kon (Human IL-17F [20]): 1.67e+06 M⁻¹ s⁻¹
- Kd (Cyno IL-17A [21]): 0.007 nM
- koff (Cyno IL-17A [21]): 1.24e-05 s⁻¹
- kon (Cyno IL-17A [21]): 1.65e+06 M⁻¹ s⁻¹
- Kd (Human albumin): 2.51 nM
- koff (Human albumin): 0.000154 s⁻¹
- kon (Human albumin): 66500 M⁻¹ s⁻¹
- Kd (Cyno IL-13): 0.156 nM
- koff (Cyno IL-13): 0.000148 s⁻¹
- kon (Cyno IL-13): 948000 M⁻¹ s⁻¹
- Kd (Cyno IL-17AF): 0.014 nM
- koff (Cyno IL-17AF): 2.87e-05 s⁻¹
- kon (Cyno IL-17AF): 2.25e+06 M⁻¹ s⁻¹
- Kd (Cyno IL-17F [22]): 0.283 nM
- koff (Cyno IL-17F [22]): 0.000282 s⁻¹
- kon (Cyno IL-17F [22]): 1.14e+06 M⁻¹ s⁻¹
- Kd (Cyno albumin): 2.47 nM
- koff (Cyno albumin): 0.000204 s⁻¹
- kon (Cyno albumin): 81800 M⁻¹ s⁻¹
B1: IL-13/IL-17AF multi-specific antibody (bispecific antibody)
heavy: EVQLVESGGGLVQPGGSLRLSCAASGFTFSDYNMAWVRQAPGKGLEWVATITYEGRNTYYRDSVKGRFTISRDNAKNSLYLQMNSLRAEDTAVYYCASPPQYYEGSIYRLWFAHWGQGTLVTVSSASTKGPSVFPLAPSSKSTSGGTAALGCLVKDYFPEPVTVSWNSGALTSGVHTFPAVLQSSGLYSLSSVVTVPSSSLGTQTYICNVNHKPSNTKVDKKVEPKSCSGGGGTGGGGSEVQLLESGGGLVQPGGSLRLSCAVSGIDLSNYAINWVRQAPGKCLEWIGIIWASGTTFYATWAKGRFTISRDNSKNTVYLQMNSLRAEDTAVYYCARTVPGYSTAPYFDLWGQGTLVTVSSGGGGSGGGGSGGGGSGGGGSDIQMTQSPSSVSASVGDRVTITCQSSPSVWSNFLSWYQQKPGKAPKLLIYEASKLTSGVPSRFSGSGSGTDFTLTISSLQPEDFATYYCGGGYSSISDTTFGCGTKVEIKRT
light: AIQLTQSPSSLSASVGDRVTITCRADESVRTLMHWYQQKPGKAPKLLIYLVSNSEIGVPDRFSGSGSGTDFRLTISSLQPEDFATYYCQQTWSDPWTFGQGTKVEIKRTVAAPSVFIFPPSDEQLKSGTASVVCLLNNFYPREAKVQWKVDNALQSGNSQESVTEQDSKDSTYSLSSTLTLSKADYEKHKVYACEVTHQGLSSPVTKSFNRGECSGGGGSGGGGSEVQLVQSGAEVKKPGSSVKVSCKASGYSFTSYYIHWVRQAPGQCLEWMGRIGPGSGDINYNEKFKGRATFTVDKSTSTAYMELSSLRSEDTAVYYCARFHYDGADWGQGTLVTVSSGGGGSGGGGSGGGGSGGGGSDIQMTQSPSSLSASVGDRVTITCKASQNINENLDWYQQKPGKAPKLLIYYTDILQTGIPSRFSGSGSGTDYTLTISSLQPEDFATYYCYQYYSGYTFGCGTKLEIKRT
notes: also called UCBXXXX; IL-17AF-IL-13 multi-specific antibody
